Values belong to the molecule of their own block, whether it stands above or below them.
Columns and labels:
[1] = tested on: Lol p V reactive T Cells; assay: T cell proliferation (tritiated thymidine) of Lol p V-primed T cell lines from grass-allergic patients; format: cell-based, human; conditions: one allergic patient; results not shown
Text: As discussed in Example 2, human T cell stimulating activity can be tested by culturing T cells obtained from an individual sensitive to Lol p V allergen, (i.e., an individual who has an IgE mediated immune response to Lol p V allergen) with a peptide derived from the allergen and determining whether proliferation of T cells occurs in response to the peptide as measured, e.g., by cellular uptake of tritiated thymidine. Stimulation indices for responses by T cells to peptides can be calculated as the maximum CPM in response to a peptide divided by the control CPM. A stimulation index (S.I.) equal to or greater than two times the background level is considered “positive”. […]
In addition, preferred peptides have a positivity index (P.I.) of at least about 60, more preferably about 100, more preferably at least about 200 and most preferably at least about 300. The positivity index for a peptide is determined by multiplying the mean T cell stimulation index by the percent of individuals, in a population of individuals sensitive to ryegrass pollen (e.g., preferably a population of at least 15 individuals, more preferably a population of at least 30 individuals or more), who have a T cell stimulation index to such peptide of at least 2.0. […]
This amount of priming antigen was determined to be optimal for the activation of T cells from most grass-allergic patients. […]

[2] = tested on: human basophil mediator release; assay: Histamine release assay on whole blood of a ryegrass allergic individual; format: cell-based; conditions: one ryegrass allergic individual; whole heparinized blood; 37° C., 30 minutes; FIG. 12
Experimental: A histamine release assay was performed on one ryegrass allergic individual, using Lol p SPE and rLol p V as the added antigens. This assay is a measure of IgE reactivity through human basophil mediator release, and it is based on the detection of an acylated derivative of histamine using a specific monoclonal antibody (Morel, A. M. and Delaage, M. A.; 1988, J. Allergy Clin. Immunol. 82: 646–654). The reagents for this radioimmunoassay are sold as a kit by Amac Inc. (Westbrook, Me.). Whole heparinized blood drawn from a grass allergic individual and then […] aliquots were mixed with an equal amount of the grass antigens SPE and rLol p V at various concentrations or the diluent, PACM buffer (25 mM PIPES, 100 mM NaCl, 5 mM KCL, 4 mM CaCl2, 1 mM MgCl2, 0.003% HSA, pH7.3) in 1.5 ml polypropylene. The release reactions were carried out at 37° C. for 30 minutes. After this incubation the samples were centrifuged at 1500 RPM for 3 minutes and the supernatants removed. For the total histamine release, 0.1 ml of blood was added to 0.9 ml of PACM buffer, vortexed, and then boiled for 3 minutes. The samples were spun at 13000 RPM and the supernatant removed for analysis. Duplicate samples were used to measure total release. All of the supernatants are diluted 1:4 in acylation buffer and the remainder of the assay is performed according to the manufacturer's instructions.

[3] = tested on: human IgE; assay: Direct ELISA of human IgE binding to coated antigen
Experimental: (§1) To examine the importance of Lol p V, both direct and competition ELISA assays were performed. In the direct ELISA, 100 μl of 10 μg/ml of antigen in Phosphate Buffered Saline, pH 7.4 (PBS) was used to coat Immulon II (Dynatech, Chantilly, Va.) 96 well plates for 4 hours at room temperature (RT) or overnight (O/N) at 4° C. In between each step the plates were washed 3× with PBS-T. The excess coating antigen(s) was removed and the wells blocked with 300 μl/well 0.5% gelatin +1 mg/ml PVP in PBS for 1 hour at RT. Serially diluted patient plasma or the diluent PBS+0.05% Tween^−20 was incubated in at 100 μl/well in duplicate wells overnight at 4° C. […] Plates were read on a MR7000 plate reader (Dynatech, Chantilly, Va.) with a 450 nm filter. The absorbance levels of duplicate wells were averaged. The results were graphed as absorbance vs. dilution. […] The results are plotted as the absorbance vs. the log of the concentration of competing antigen.
For the direct ELISA, wells were coated with either soluble pollen extract (SPE) of ryegrass pollen or rLol p V (purified native Lol p V may have a small amount of Lol p I; use of recombinant material assures that the IgE binding is only to Lol p V) and human IgE antibody binding to these antigens was analyzed. […]

[4] = tested on: specific IgE; conditions: immunoblotting; WO 93/04174, page 65; cited from earlier work
[5] = tested on: human IgE; assay: Competition ELISA for IgE binding to ryegrass pollen SPE; conditions: IgE source PHP-A or individual patient plasma; FIGS. 10 and 11
Experimental: as §1
In the competition assay, ELISA wells were coated with ryegrass pollen SPE and then allergic patient IgE binding was measured in the presence of competing ryegrass pollen SPE, purified native Lol p V, or rLol p V. The source of allergic IgE in this assay was PHP-A (FIG. 10) or individual patient plasma (FIG. 11). […]

B1: purified native Lol p V: Lol p V allergens affinity-purified from ryegrass pollen on mAb 1B9 column (protein)
chain: ADAGYTPAAAATPATPAATPAAAGGKATTDEQKLLEDVNAGFKAAVAAAANAPPADKFKIFEAAFSESSKGLLATSAAKAPGLIPKLDTAYDVAYKAAEGATPEAKYDAFVTALTEALRVIAGALEVHAVKPATEEVPAAKIPTGELQIVDKIDAAFKIAATAANAAPTNDKFTVFESAFNKALNECTGGAYETYKFIPSLEAAVKQAYAATVAAAPEVKYAVFEAALTKAITAMTQAQKAGKPAAAAATGAATVATGAATAAAGAATAAAGGYKA
modifications: non-natural residues
T cell proliferative response of one patient [1]: responds well

IgE binding in direct ELISA ([3]; IgE source PHP-A, PHP-B or four individual patients, FIGS. 6-9): high IgE binding
IgE binding in direct ELISA (reactivity to Lol p V peptides) ([3]; IgE source PHP-B, preliminary assay, FIG. 13a and 13b): very high IgE binding
B2: rLol p V: bacterially expressed recombinant Lol p V encoded by clone 12R, with His6 sequence (protein)
chain: MHHHHHHMAVQKYTVALFLAVALVAGPAASYAADAGYTPAAAATPATPAATPAAAGGKATTDEQKLLEDVNAGFKAAVAAAANAPPADKFKIFEAAFSESSKGLLATSAAKAPGLIPKLDTAYDVAYKAAEGATPEAKYDAFVTALTEALRVIAGALEVHAVKPATEEVPAAKIPTGELQIVDKIDAAFKIAATAANAAPTNDKFTVFESAFNKALNECTGGAYETYKFIPSLEAAVKQAYAATVAAAPEVKYAVFEAALTKAITAMTQAQKAGKPAAAAATGAATVATGAATAAAGAATAAAGGYKA
histamine release [2]: strong histamine release over a wide concentration range
T cell proliferative response of one patient [1]: responds well

B3: Lol p V: major ryegrass (Lolium perenne) pollen protein allergen (protein)
chain: B2 chain
ryegrass pollen sensitive patients possessing specific IgE antibody that bound [4]: 80%
competition for IgE binding to ryegrass pollen SPE [5]: significant portion of IgE against Lol p SPE is specific for Lol p V
